Holding throughout (test): SPR, mAb captured, 37 C
On the technique in general: Surface plasmon resonance follows binding to a sensor surface in real time, without labels.

Assay [1] deals with T1, recombinant mouse LEPR extracellular domain expressed with a C-terminal myc-myc-hexahistidine tag (mouse, UniProt P48356 22-839).
T1 construct: Monomeric construct; also called mLEPR.MMH; mLEPR-MMH
The procedure: (§1) Equilibrium dissociation constants (KD values) for antigen binding to purified anti-LEPR monoclonal antibodies of the invention were determined using a real-time surface plasmon resonance biosensor using a Biacore 4000 instrument. All binding studies were performed in running buffer containing 10 mM HEPES, 150 mM NaCl, 3 mM EDTA, and 0.05% v/v Surfactant Tween-20, pH 7.4 (HBS-ET running buffer) at 25° C. and 37° C. The Biacore sensor surface was first derivatized by amine coupling with a monoclonal mouse anti-human Fc antibody (GE, # BR-1008-39) to the capture anti-LEPR monoclonal antibodies. The LEPR reagents tested for binding to the anti-LEPR monoclonal antibodies included recombinant human LEPR extracellular domain expressed with a C-terminal myc-myc-hexahistidine tag (hLEPR.MMH; SEQ ID NO:90), recombinant cynomolgus monkey LEPR extracellular domain expressed with a C-terminal myc-myc-hexahistidine tag (mfLEPR.MMH; SEQ ID NO:93), recombinant mouse LEPR extracellular domain expressed with a C-terminal myc-myc-hexahistidine tag (mLEPR.MMH; SEQ ID NO:94), recombinant rat LEPR extracellular domain expressed with a C-terminal myc-myc-hexahistidine tag (rLEPR.MMH; SEQ ID NO:95), and recombinant human LEPR extracellular domain expressed with a C-terminal mouse IgG2a Fc tag (hLEPR.mFc; SEQ ID NO:91). LEPR constructs that include MMH tags are monomeric LEPR constructs, and LEPR constructs including an mFc tag are dimeric LEPR constructs. […] The dissociation of monoclonal antibody bound LEPR reagent was monitored for 10 minutes in HBS-ET running buffer. Kinetic association (10 and dissociation (10 rate constants were determined by fitting the real-time binding sensorgrams to a 1:1 binding model with mass transport limitation using Scrubber 2.0c curve-fitting software. Binding dissociation equilibrium constants (KD) and dissociative half-lives (t½) were calculated from the kinetic rate constants as: […]

Assay [2] concerns the target T2, recombinant human LEPR extracellular domain expressed with a C-terminal myc-myc-hexahistidine tag (human, UniProt P48357 22-839).
T2 construct: Monomeric construct; also called hLEPR.MMH; hLEPR-MMH
The protocol:
as §1

For assay [3], the target named is T3, recombinant rat LEPR extracellular domain expressed with a C-terminal myc-myc-hexahistidine tag (rat, UniProt Q62959 22-839).
T3 construct: Monomeric construct; also called rLEPR.MMH; rLEPR-MMH
The procedure:
as §1

Assay [4] deals with T4, recombinant human LEPR extracellular domain expressed with a C-terminal mouse IgG2a Fc tag (human).
T4 construct: Dimeric construct; also called hLEPR.mFc; hLEPR-mFc
T4 chain: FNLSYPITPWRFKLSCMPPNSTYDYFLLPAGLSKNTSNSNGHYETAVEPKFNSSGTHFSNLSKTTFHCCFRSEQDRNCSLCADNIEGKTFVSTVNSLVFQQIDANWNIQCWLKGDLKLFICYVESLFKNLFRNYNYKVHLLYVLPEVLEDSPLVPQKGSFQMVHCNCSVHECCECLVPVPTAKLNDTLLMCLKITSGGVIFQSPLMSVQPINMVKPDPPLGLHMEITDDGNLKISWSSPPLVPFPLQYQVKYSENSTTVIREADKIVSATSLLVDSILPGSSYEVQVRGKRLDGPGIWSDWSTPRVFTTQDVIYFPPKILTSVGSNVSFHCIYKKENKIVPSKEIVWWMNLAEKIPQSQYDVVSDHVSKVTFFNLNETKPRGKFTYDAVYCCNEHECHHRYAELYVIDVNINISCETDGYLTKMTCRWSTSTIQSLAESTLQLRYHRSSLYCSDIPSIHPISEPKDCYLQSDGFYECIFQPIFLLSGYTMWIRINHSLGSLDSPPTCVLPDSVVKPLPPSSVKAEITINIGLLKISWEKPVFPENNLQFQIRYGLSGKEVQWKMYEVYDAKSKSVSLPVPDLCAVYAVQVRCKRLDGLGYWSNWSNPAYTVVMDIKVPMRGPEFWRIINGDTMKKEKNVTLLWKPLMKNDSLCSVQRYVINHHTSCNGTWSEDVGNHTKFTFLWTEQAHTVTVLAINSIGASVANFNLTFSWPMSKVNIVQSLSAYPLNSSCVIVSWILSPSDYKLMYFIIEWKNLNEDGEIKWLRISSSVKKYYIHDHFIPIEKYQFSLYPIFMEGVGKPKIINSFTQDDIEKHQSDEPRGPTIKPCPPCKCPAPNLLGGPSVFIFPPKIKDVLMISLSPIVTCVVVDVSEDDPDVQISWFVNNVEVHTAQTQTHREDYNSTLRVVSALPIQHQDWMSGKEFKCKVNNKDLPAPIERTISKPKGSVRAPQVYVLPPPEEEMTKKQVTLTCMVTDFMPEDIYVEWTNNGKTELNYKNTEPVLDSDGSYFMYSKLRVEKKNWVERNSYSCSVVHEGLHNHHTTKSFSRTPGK
The protocol: as §1

For assay [5], the target named is T5, recombinant cynomolgus monkey LEPR extracellular domain expressed with a C-terminal myc-myc-hexahistidine tag (cynomolgus monkey, UniProt Q9MYL0 22-837 (rhesus entry)).
T5 construct: Monomeric construct; also called mfLEPR.MMH; mfLEPR-MMH
The protocol:
as §1

T3 sequence (Q62959 other isoform, or with tags, fused parts or gaps): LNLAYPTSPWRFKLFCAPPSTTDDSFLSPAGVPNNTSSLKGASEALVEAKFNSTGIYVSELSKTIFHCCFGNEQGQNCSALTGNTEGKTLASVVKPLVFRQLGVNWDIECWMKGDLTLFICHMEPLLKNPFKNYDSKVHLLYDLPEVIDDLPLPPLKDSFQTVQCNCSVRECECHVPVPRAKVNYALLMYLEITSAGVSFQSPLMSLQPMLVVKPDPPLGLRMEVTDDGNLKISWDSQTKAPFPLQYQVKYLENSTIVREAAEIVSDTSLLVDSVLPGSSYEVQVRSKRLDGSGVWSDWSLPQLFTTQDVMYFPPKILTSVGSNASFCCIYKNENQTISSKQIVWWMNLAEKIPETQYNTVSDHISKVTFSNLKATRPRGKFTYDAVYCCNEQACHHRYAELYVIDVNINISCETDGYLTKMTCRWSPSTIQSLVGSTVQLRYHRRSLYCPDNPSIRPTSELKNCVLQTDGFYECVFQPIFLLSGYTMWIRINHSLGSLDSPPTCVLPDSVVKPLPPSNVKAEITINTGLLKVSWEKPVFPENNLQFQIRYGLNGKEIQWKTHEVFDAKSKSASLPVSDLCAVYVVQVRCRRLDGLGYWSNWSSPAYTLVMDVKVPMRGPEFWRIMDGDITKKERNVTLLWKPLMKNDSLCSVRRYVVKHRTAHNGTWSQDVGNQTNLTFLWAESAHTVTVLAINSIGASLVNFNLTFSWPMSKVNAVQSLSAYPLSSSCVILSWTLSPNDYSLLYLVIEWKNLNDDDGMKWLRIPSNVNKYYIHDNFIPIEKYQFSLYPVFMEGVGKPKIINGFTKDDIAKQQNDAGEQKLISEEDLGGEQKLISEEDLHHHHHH
T1 sequence (P48356 other isoform, or with tags, fused parts or gaps): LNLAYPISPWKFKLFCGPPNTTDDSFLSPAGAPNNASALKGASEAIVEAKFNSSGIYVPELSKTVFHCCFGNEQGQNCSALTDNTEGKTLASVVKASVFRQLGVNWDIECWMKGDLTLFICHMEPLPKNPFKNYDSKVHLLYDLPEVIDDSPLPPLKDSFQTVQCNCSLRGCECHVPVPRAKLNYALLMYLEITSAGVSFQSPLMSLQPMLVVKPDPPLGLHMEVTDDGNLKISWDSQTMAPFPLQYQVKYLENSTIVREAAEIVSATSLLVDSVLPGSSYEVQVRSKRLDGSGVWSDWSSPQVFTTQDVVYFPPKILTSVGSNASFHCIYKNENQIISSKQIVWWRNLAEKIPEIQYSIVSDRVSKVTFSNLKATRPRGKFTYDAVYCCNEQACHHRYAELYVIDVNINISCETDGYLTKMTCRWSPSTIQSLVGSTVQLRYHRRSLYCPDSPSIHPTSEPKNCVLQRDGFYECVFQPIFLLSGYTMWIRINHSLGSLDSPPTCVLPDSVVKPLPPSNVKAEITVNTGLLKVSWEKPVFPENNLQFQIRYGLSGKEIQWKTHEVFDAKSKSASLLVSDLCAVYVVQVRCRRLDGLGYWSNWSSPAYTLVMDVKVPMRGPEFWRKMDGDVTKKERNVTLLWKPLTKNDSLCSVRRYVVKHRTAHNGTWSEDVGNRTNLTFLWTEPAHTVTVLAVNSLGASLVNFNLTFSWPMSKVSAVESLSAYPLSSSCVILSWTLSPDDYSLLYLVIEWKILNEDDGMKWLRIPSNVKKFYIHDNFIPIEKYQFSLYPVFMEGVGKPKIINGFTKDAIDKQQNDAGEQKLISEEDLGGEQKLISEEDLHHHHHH

B1: H4H18457P2 (antibody, human IgG4, V domains shown)
VH: EVQLVESGGSVVRPGESLRLSCAASGFTFDDYGMSWVRQAPGKGLEWVSGISWNGGITVYADSVKGRFTVSRDNAKNSLYLQMNSLRAEDTALYHCARARYGGADYWGQGTLVTVSS
VL: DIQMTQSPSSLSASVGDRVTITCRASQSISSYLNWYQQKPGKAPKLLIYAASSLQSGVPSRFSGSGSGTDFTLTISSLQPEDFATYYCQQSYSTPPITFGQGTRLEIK
notes: H4H prefix: human IgG4 Fc
As to B1, in assay [1], the “100 nM mLEPR-MMH Bound (RU)” value was -1 RU. In assay [2], the “100 nM hLEPR-MMH Bound (RU)” value was found to be 108 RU, the Kd amounted to 24.8 nM, the koff is 0.00855 s⁻¹ and the kon came out at 345000 M⁻¹ s⁻¹. In addition, the t½ in assay [2] turned out to be 1.4 min. Moreover, in assay [3], the “100 nM rLEPR-MMH Bound (RU)” value was determined as 16 RU, the Kd is 580 nM, the koff was found to be 0.0175 s⁻¹ and the on-rate constant (kon) is 30200 M⁻¹ s⁻¹. For the same molecule, the t½ in assay [3] was 0.7 min. For the same molecule, in assay [4], the “100 nM hLEPR-mFc Bound (RU)” value was determined as 166 RU, the Kd turned out to be 1.27 nM, the koff is 0.000704 s⁻¹ and the kon came to 556000 M⁻¹ s⁻¹. Besides, in assay [4], the t½ is 16 min. In addition, in assay [5], the “100 nM mfLEPR-MMH Bound (RU)” value was found to be 117 RU, the Kd turned out to be 30 nM, the off-rate (koff) came to 0.0104 s⁻¹ and the kon is 347000 M⁻¹ s⁻¹. Moreover, the t½ in assay [5] worked out at 1.1 min.

B2: H4H18440P2 (antibody, human IgG4, V domains shown)
VH: QVQLVESGGGMVKPGGSLRLSCAASGFTFSDYYMSWIRQAPGKGLEWISHISITGSTIYYADSVKGRFTISRDNAKNSLYLEMNRLRDEDTAVYYCTRDEPDIVLVRYGMDVWGQGTTVTVSS
VL: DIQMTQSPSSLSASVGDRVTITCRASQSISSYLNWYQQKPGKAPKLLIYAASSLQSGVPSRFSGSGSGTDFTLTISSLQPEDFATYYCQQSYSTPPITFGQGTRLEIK
notes: H4H prefix: human IgG4 Fc
For B2, the “100 nM mLEPR-MMH Bound (RU)” value in assay [1] is -1 RU. In assay [2], the “100 nM hLEPR-MMH Bound (RU)” value was determined as 95 RU, the Kd was 27.3 nM, the koff worked out at 0.00173 s⁻¹ and the kon turned out to be 63400 M⁻¹ s⁻¹. The t½ in assay [2] was 7 min. In addition, the “100 nM rLEPR-MMH Bound (RU)” value in assay [3] was 0 RU. Also, in assay [4], the “100 nM hLEPR-mFc Bound (RU)” value stood at 181 RU, the Kd was 0.527 nM, the koff is 0.000112 s⁻¹ and the kon came to 212000 M⁻¹ s⁻¹. Besides, the t½ in assay [4] came out at 103 min. Moreover, in assay [5], the “100 nM mfLEPR-MMH Bound (RU)” value came to 66 RU, the Kd is 101 nM, the koff turned out to be 0.00724 s⁻¹ and the kon came to 71500 M⁻¹ s⁻¹. Moreover, the t½ in assay [5] came out at 1.6 min.

B3: H4H17322P2 (antibody, human IgG4, V domains shown)
VH: QLQLQESGPGLVKPSETLSLTCTVSGASISSSRFYGGWIRQPPGKGLEWIGDIYYSGNTYYNPSLQSRVTISVDTSKNQFSLKLSSVTAADTAVYYCARHLMITFGGLIVEGFDIWGQGTMVTVSS
VL: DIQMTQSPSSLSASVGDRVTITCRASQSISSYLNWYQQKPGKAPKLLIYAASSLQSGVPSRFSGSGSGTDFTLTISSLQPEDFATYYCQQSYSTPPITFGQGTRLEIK
notes: H4H prefix: human IgG4 Fc
On to B3, for which the “100 nM mLEPR-MMH Bound (RU)” value in assay [1] is -1 RU. In assay [2], the “100 nM hLEPR-MMH Bound (RU)” value is 99 RU, the Kd amounted to 11.7 nM, the koff came to 0.000812 s⁻¹ and the on-rate (kon) worked out at 69500 M⁻¹ s⁻¹. Moreover, the t½ in assay [2] worked out at 14 min. Further, in assay [3], the “100 nM rLEPR-MMH Bound (RU)” value stood at 9 RU, the Kd was 352 nM, the koff amounted to 0.0328 s⁻¹ and the kon came out at 93200 M⁻¹ s⁻¹. Further, in assay [3], the t½ worked out at 0.4 min. Besides, in assay [4], the “100 nM hLEPR-mFc Bound (RU)” value stood at 105 RU, the equilibrium dissociation constant (Kd) is 3.31 nM, the koff is 0.00044 s⁻¹ and the kon turned out to be 133000 M⁻¹ s⁻¹. Also, in assay [4], the t½ was found to be 26 min. Besides, in assay [5], the “100 nM mfLEPR-MMH Bound (RU)” value turned out to be 142 RU, the Kd was 7.72 nM, the koff worked out at 0.0011 s⁻¹ and the kon is 143000 M⁻¹ s⁻¹. In addition, the t½ in assay [5] came to 10 min.

B4: H4H18437P2 (antibody, human IgG4, V domains shown)
VH: QVQLVESGGGVVQPGRSLRLSCAASGFTFSSYGIHWVRQAPGKGLEWVAVISYDGNNKYYADSVKGRFTISRDNSKNTLYLQMNSLRAEDTAVYYCAKDLFLEWLFHGMGVWGQGTTVTVSS
VL: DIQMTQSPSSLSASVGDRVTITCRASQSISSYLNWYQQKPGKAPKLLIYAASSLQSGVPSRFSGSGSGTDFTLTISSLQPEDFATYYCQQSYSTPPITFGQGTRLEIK
notes: H4H prefix: human IgG4 Fc
With B4, in assay [1], the “100 nM mLEPR-MMH Bound (RU)” value was 6 RU, the Kd was found to be 1160 nM, the koff amounted to 0.0133 s⁻¹ and the kon came to 11500 M⁻¹ s⁻¹. Further, the t½ in assay [1] is 0.9 min. For the same molecule, in assay [2], the “100 nM hLEPR-MMH Bound (RU)” value came out at 55 RU, the Kd is 77.6 nM, the koff came to 0.00884 s⁻¹ and the kon stood at 114000 M⁻¹ s⁻¹. The t½ in assay [2] is 1.3 min. For the same molecule, in assay [3], the “100 nM rLEPR-MMH Bound (RU)” value amounted to 10 RU, the Kd worked out at 629 nM, the dissociation rate constant (koff) came out at 0.0193 s⁻¹ and the kon was 30700 M⁻¹ s⁻¹. Also, the t½ in assay [3] worked out at 0.6 min. Moreover, in assay [4], the “100 nM hLEPR-mFc Bound (RU)” value stood at 88 RU, the Kd is 4.3 nM, the koff was 0.000556 s⁻¹ and the kon was 129000 M⁻¹ s⁻¹. In assay [4], the t½ is 21 min. For the same molecule, in assay [5], the “100 nM mfLEPR-MMH Bound (RU)” value came out at 58 RU, the equilibrium dissociation constant (Kd) amounted to 147 nM, the koff worked out at 0.0127 s⁻¹ and the kon was found to be 86900 M⁻¹ s⁻¹. For the same molecule, in assay [5], the t½ was 0.9 min.

B5: H4H18462P2 (antibody, human IgG4, V domains shown)
VH: EVQLVESGGDLVQPGRSLRLSCAASGFTFSSFAMSWVRQAPGRGLEWVSSLSDSGDNTYYADSVKGRFTISRDNSKNTLYLQMNNLRAEDTAVYYCAKDLFSGWLFHGFDVWGQGTMVTVSS
VL: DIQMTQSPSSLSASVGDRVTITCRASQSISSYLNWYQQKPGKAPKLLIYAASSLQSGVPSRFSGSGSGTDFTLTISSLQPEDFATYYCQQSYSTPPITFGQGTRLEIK
notes: H4H prefix: human IgG4 Fc
For the molecule B5, in assay [2], the “100 nM hLEPR-MMH Bound (RU)” value worked out at 31 RU, the Kd stood at 248 nM, the koff worked out at 0.0114 s⁻¹ and the kon was 45800 M⁻¹ s⁻¹. For the same molecule, the t½ in assay [2] was determined as 1 min. In assay [4], the “100 nM hLEPR-mFc Bound (RU)” value is 84 RU, the Kd stood at 4.26 nM, the koff is 0.000543 s⁻¹ and the kon stood at 128000 M⁻¹ s⁻¹. For the same molecule, the t½ in assay [4] was determined as 21 min. For the same molecule, in assay [5], the “100 nM mfLEPR-MMH Bound (RU)” value amounted to 28 RU, the Kd turned out to be 261 nM, the koff came to 0.0337 s⁻¹ and the kon is 129000 M⁻¹ s⁻¹. Further, the t½ in assay [5] was 0.3 min.

B6: H4H18464P2 (antibody, human IgG4, V domains shown)
VH: QVQLVQSGPEVKKPGASVKVSCKGSGYTFSWYGISWIRQAPGHGLEWMGWISASSGNTRFAQKVQGRLTMTTDTSTSTAYMELRSLRSDDTAVYYCARTGTRPFDYWGQGTLVTVSS
VL: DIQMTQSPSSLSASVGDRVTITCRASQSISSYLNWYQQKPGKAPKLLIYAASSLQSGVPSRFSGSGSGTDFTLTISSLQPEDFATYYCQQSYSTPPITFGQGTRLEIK
notes: H4H prefix: human IgG4 Fc
Turning to B6, in assay [1], the “100 nM mLEPR-MMH Bound (RU)” value is 1 RU. In assay [2], the “100 nM hLEPR-MMH Bound (RU)” value amounted to 68 RU, the Kd came out at 20.5 nM, the off-rate (koff) was 0.00315 s⁻¹ and the association rate constant (kon) was 154000 M⁻¹ s⁻¹. For the same molecule, the t½ in assay [2] was determined as 3.7 min. Further, the “100 nM rLEPR-MMH Bound (RU)” value in assay [3] came out at 1 RU. Moreover, in assay [4], the “100 nM hLEPR-mFc Bound (RU)” value turned out to be 105 RU, the Kd came to 1.28 nM, the koff was 0.000517 s⁻¹ and the kon worked out at 404000 M⁻¹ s⁻¹. Besides, in assay [4], the t½ stood at 22 min. In assay [5], the “100 nM mfLEPR-MMH Bound (RU)” value is 13 RU, the Kd came to 215 nM, the koff was found to be 0.00841 s⁻¹ and the kon was determined as 39200 M⁻¹ s⁻¹. Besides, in assay [5], the t½ came to 1.4 min.

In general, Kd refers to the concentration at which binding is half-saturated. In general, koff refers to the first-order rate constant of dissociation. The term kon denotes the rate constant with which the complex forms. The term t½ denotes the time needed for the level to fall by half in the phase considered.

The record behind these values is US20200123264A1 (Regeneron, published 2020).
